The target of assay [1] is 구제역 바이러스 혈청형 O 배양액(cal1~cal4) (Foot-and-mouth disease virus serotype O). In words: sandwich ELISA, cal2, 1E58 coat 8 ug/ml, 1E58-HRP 0.4 ug/ml, 450 nm. (In general: ELISA stands for enzyme-linked immunosorbent assay.)
Assay [2] has the same target. In words: sandwich ELISA, cal3, 1E58 coat 2 ug/ml, 1E58-HRP 0.6 ug/ml, 450 nm.

B1: 단클론항체 1E58 (antibody, V domains shown)
VH: EFQLQQSRPELAKPGASVKISCKTSGHTFTTYTMHWVKQSHVKSLEWIGCFNPNNGGATYNQKFKGKATLTMDKSSNTAYVEVRSLTSDDSAVYYCAYGNYVNFDYWGQGTTLTVSS
VL: DIVLTQSPASLAVSLGQRATISYRASKSVSTSGYSYMHWNQQKPGQPPRLLIYLVSNLESGVPARFSGSGSGTDFTLNIHPVEEEDAATYYCQHIRELTRSEGGPSWKN
On to B1, for which the figures for the O.D in assay [1] and in assay [2] were 1.85 O.D and 1.89 O.D, respectively.

Source of the values: KR20200059381A.
